According to doi:10.1101/639963:

Columns and labels:
[1] = molecular target: Myosin VI tail, large-insert isoform (MVI_(TAIL(LI))); assay: FRET or BRET
[2] = molecular target: nuclear dot protein 52 (NDP52/CALCOCO2) (UniProt Q13137); assay: FRET or BRET
[3] = molecular target: Dab2 C-terminal region (residues 649-770) (UniProt P98082); assay: FRET or BRET
[4] = molecular target: Myosin VI N-terminal tail fragment, non-insert isoform (NMVI_(TAIL(NI))); assay: FRET or BRET
[5] = molecular target: Myosin VI N-terminal tail fragment, large-insert isoform (NMVI_(TAIL(LI))); assay: FRET or BRET
[6] = molecular target: Myosin VI tail, non-insert isoform (MVI_(TAIL(NI)), aa 814-1253); assay: FRET or BRET
[7] = molecular target: T1, Dab2 C-terminal region (myosin VI binding site) (Homo sapiens, UniProt P98082 649-770); assay: fluorescence anisotropy
T1 sequence: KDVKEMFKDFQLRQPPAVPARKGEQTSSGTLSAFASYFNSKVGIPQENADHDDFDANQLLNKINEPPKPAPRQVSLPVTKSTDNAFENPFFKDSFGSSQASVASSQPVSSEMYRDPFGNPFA

[8] = molecular target: Myosin VI CBD (cargo-binding domain; non-insert isoform) (Homo sapiens, UniProt Q9UM54-5 1060-1253); assay: fluorescence anisotropy

Sequence of nuclear dot protein 52 (NDP52/CALCOCO2) (Q13137 whole entry, the tested form may be a part): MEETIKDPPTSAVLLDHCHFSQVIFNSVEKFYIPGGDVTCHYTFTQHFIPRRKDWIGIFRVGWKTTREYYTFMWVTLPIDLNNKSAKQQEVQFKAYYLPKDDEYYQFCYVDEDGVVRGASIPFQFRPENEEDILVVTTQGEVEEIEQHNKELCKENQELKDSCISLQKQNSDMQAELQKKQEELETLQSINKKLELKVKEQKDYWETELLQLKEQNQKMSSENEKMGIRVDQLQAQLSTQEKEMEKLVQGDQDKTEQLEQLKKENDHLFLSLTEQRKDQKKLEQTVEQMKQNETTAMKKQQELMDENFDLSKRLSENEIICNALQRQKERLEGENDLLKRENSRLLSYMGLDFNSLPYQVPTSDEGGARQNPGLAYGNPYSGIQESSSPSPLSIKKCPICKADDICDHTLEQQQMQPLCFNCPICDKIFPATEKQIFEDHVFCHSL

“Myosin VI tail, large-insert isoform (MVI_(TAIL(LI))) (domain or fragment)” showed a Kd^DIMER with 20 μM Dab2 [1] of 3.3 µM, a Kd^DIMER with 20 μM NDP52 [1] of 9.3 µM and a Kd [2] of 17.3 µM. For the same molecule, the Kd [3] was 3.5 µM.

“Myosin VI C-terminal globular cargo binding domain (CBD) (domain or fragment)” was tested, and the Kd with 10 μM NDP52 [4] was 4.1 µM and the Kd with 10 μM Dab2 [5] was 6 µM.

With “Myosin VI tail, non-insert isoform (MVI_(TAIL(NI)), aa 814-1253) (domain or fragment)” the Kd [2] was 2.1 µM, the Kd [3] was 11.6 µM and the Kd^DIMER with 20 μM Dab2 [6] was 5.3 µM. For the same molecule, the Kd^DIMER with 20 μM NDP52 [6] was 4.3 µM.

B1: ds40 FAM-DNA (40 bp) (dsDNA)
DNA 1: TTAGTTGTTCGTAGTGCTCGTCTGGCTCTGGATTACCCGC
DNA 2: GCGGGTAATCCAGAGCCAGACGAGCACTACGAACAACTAA
B1 was tested, and the binding result [7] was “no binding” and the Kd [8] was 0.14 µM.
